# Laboratory results from patent US20260055183A1.
# Target: triggering receptor expressed on myeloid cells 1 (TREM-1), human, on monocytes / PBMCs of healthy donors (human) (UniProt Q9NP99)
# Assay: cell-based or functional assay
# Sequence of triggering receptor expressed on myeloid cells 1 (TREM-1), human, on monocytes / PBMCs of healthy donors (human) (Q9NP99 21-234 limits assumed): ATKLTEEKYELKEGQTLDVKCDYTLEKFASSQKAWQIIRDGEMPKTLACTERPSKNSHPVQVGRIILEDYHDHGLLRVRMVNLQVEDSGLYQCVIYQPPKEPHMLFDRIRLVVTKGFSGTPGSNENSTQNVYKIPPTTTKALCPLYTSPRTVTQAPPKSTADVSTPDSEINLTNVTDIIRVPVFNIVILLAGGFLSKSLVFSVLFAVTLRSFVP
# Sequence of peptidoglycan-recognition-protein 1 (PGLYRP1) (O75594 22-196 limits assumed): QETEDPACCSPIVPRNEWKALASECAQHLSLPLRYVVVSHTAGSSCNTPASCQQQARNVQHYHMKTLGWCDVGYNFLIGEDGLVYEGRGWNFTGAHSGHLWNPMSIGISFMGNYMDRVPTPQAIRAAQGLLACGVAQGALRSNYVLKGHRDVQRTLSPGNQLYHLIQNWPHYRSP
substance,measurement,value
peptidoglycan-recognition-protein 1 (PGLYRP1) (from UniProt O75594 22-196) (ligand),"Log2FC P + L vs P, ACOT7 mRNA in monocytes (log2 fold change)",2.23
same,"Log2FC P + L vs P, CD52 mRNA in monocytes (log2 fold change)",2.28
same,"Log2FC P + L vs P, CD55 mRNA in monocytes (log2 fold change)",2.39
same,"Log2FC P + L vs P, CDKN1A mRNA in monocytes (log2 fold change)",2.3
same,"Log2FC P + L vs P, CHI3L1 mRNA in monocytes (log2 fold change)",5.62
same,"Log2FC P + L vs P, CISH mRNA in monocytes (log2 fold change)",3.28
same,"Log2FC P + L vs P, CLEC12A mRNA in monocytes (log2 fold change)",2.94
same,"Log2FC P + L vs P, DHRS9 mRNA in monocytes (log2 fold change)",3.22
same,"Log2FC P + L vs P, EHD1 mRNA in monocytes (log2 fold change)",3.37
same,"Log2FC P + L vs P, FAM129A mRNA in monocytes (log2 fold change)",2.31
same,"Log2FC P + L vs P, GALNT6 mRNA in monocytes (log2 fold change)",2.09
same,"Log2FC P + L vs P, IFNLR1 mRNA in monocytes (log2 fold change)",3.07
same,"Log2FC P + L vs P, MFSD12 mRNA in monocytes (log2 fold change)",3.07
same,"Log2FC P + L vs P, MTMR11 mRNA in monocytes (log2 fold change)",2.58
same,"Log2FC P + L vs P, NAMPT mRNA in monocytes (log2 fold change)",3.47
same,"Log2FC P + L vs P, PIM2 mRNA in monocytes (log2 fold change)",2.71
same,"Log2FC P + L vs P, PLK3 mRNA in monocytes (log2 fold change)",2.67
same,"Log2FC P + L vs P, SLC27A3 mRNA in monocytes (log2 fold change)",2.74
same,"Log2FC P + L vs P, STARD4 mRNA in monocytes (log2 fold change)",2.56
same,"Log2Fc.P + L vs P, CCL1 mRNA in monocytes (log2 fold change)",8.39
same,"Log2Fc.P + L vs P, CCL20 mRNA in monocytes (log2 fold change)",8.73
same,"Log2Fc.P + L vs P, CXCL3 mRNA in monocytes (log2 fold change)",7.21
same,"Log2Fc.P + L vs P, F3 mRNA in monocytes (log2 fold change)",7.55
same,"Log2Fc.P + L vs P, IL6 mRNA in monocytes (log2 fold change)",9.16
same,"Log2Fc.P + L vs P, IL23A mRNA in monocytes (log2 fold change)",6.96
same,"Log2Fc.P + L vs P, IL24 mRNA in monocytes (log2 fold change)",6.66
same,"Log2Fc.P + L vs P, IL36G mRNA in monocytes (log2 fold change)",7.91
same,"Log2Fc.P + L vs P, ILIA (Interleukin 1, alpha) mRNA in monocytes (log2 fold change)",6.86
same,"Log2Fc.P + L vs P, ILIRN (Interleukin 1 receptor antagonist) mRNA in monocytes (log2 fold change)",7.28
same,"Log2Fc.P + L vs P, INHBA mRNA in monocytes (log2 fold change)",8.04
same,"Log2Fc.P + L vs P, MMP1 mRNA in monocytes (log2 fold change)",9.31
same,"Log2Fc.P + L vs P, MMP7 mRNA in monocytes (log2 fold change)",8.32
same,"Log2Fc.P + L vs P, MMP10 mRNA in monocytes (log2 fold change)",8.47
same,"Log2Fc.P + L vs P, OCSTAMP mRNA in monocytes (log2 fold change)",7.62
same,"Log2Fc.P + L vs P, PTGS2 mRNA in monocytes (log2 fold change)",8.32
same,"Log2Fc.P + L vs P, RGS16 mRNA in monocytes (log2 fold change)",7.52
same,"Log2Fc.P + L vs P, SCG5 mRNA in monocytes (log2 fold change)",8.09
same,"Log2Fc.P + L vs P, TFPI2 mRNA in monocytes (log2 fold change)",7.57
same,"Log2Fc.P + L vs P, TNFSF15 mRNA in monocytes (log2 fold change)",8.65
